According to the supplement of paper PMC9170038:

System: MS2 coat protein
Assay: apparent KD of MS2 coat protein; higher = weaker reporter binding
Details: Eterna round: R107
Method in brief: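 Designed RNA switches were transcribed on-chip from Illumina sequencing clusters. SNAP-549-labelled MS2 coat protein was titrated onto them in twofold steps from 0.7 or 1.5 nM to 3 µM in 100 mM Tris-HCl pH 7.5, 80 mM KCl, 4 mM MgCl2, either without or with constant ligand. Apparent KD reflects the per-design median of normalised cluster binding-curve fits.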

[1] = input ligand: theophylline 20 uM
[2] = input ligand: theophylline 2 mM
[3] = input ligand: tryptophan 2.4 mM

Row | Sequence | apparent KD of MS2 coat protein (input ligand: arginine 13.2 mM) [nM] | apparent KD of MS2 coat protein (input ligand: none) [nM] | apparent KD of MS2 coat protein [1] [nM] | apparent KD of MS2 coat protein [2] [nM] | apparent KD of MS2 coat protein [3] [nM]
1 | UGAUACACGGGAAGGAGCGACAGGGAUAAGUCCGCACGGGCCGCACAUGAGGAUCACCCAUGUCAGGUAGGUCGCCCGUGGCGUG [Erxemarima] | 13 | 13.5 | 19.6 | 16 | 12.9
2 | UGAUCCUGCAGGGAUACCAGCGCCGCUAGAUAACUAUGCACAUGAGGAUCACCCAUGUAACGCCCUUGGCAGCCCAACUAAAGGG [Same State Theophylline B GF21] | 28.9 | 39.9 | 41 | 26.7 | 35.2
3 | UGCAUUAUACAUGGAUCACCCAUGUAGACACGAGGACCGGUACGGCCGCCACUCGGAAGAGGAAACAUGAGGAUCACCCAUGUGA [Try A SS t2] | 42.7 | – | 89.7 | 105 | –
4 | UGCUACAUGAGGAUCACCCAUGUGGGUGAUACCAGCAUUCGUUUAUGCCCUUGGCAGCGCAGCCGAACCAAUCAUUCGGCAGAAA [Artiusar] | 21 | 23 | 201 | 861 | 81
5 | UGGUACAUGGCGGCCGCCACUGGGUUGAAAACCUGAGGAUCACCCUGGUAAAACGCGAAAGCGACUAGGACCGGGUCAUGUACCU | 167 | 573 | 891 | 787 | 70.5
6 | UGGUCACUAGGAGAUACCAGCCGACAUGAGGAUCACCCAUGUAACCGGCGUCCUCCCUUAGGCCCUUGGCAGCUCGUAGUUGCUC [Vebice] | 11.9 | – | 22.5 | – | 12.6
7 | UGUACCAUGUCGGCCGCCACUCAUGAUAAACCUGAGGAUCACCCUGGUAGCGUCAAAGACGCUAUGAGGACCGGGACAUGGUACU [TryBS Zipper 2] | 29.7 | 24.4 | 35.2 | 33 | 20.5
8 | UGUACUAUGUGAAGGAGCGCCACAUGAGGAUCACCCAUGUAAACAUGAGGAUCACCCAUGUGGCAGGUAGGUCGCACAUAGUACU [ArgBS - Double MS2 - I don't expect this to work] | 49.7 | 108 | 203 | 227 | 78.7
9 | UGUAUGGACUGAAGGAGCGCCUCAAAAUAACUUGAGGAUCACCCAGGUAAGGCGAAAGCCGGGCAGGUAGGUCGCAGUCCAUACU [ArgBX 3] | 31.2 | 37 | 43.1 | 72.3 | 49.9
10 | UGUAUGUGAUCUGAUACCAGAGUGACGCGAAAGCGAAACCUGAGGAUCACCCUGGUAAAACUCCCUUGGCAGCAGAUCGCAUACU | 76 | 49.5 | 35.3 | 23.9 | 68.3
11 | UGUAUGUGAUCUGAUACCAGCCUCAUAGCUUGAGGAUCACCCAAGUGGAGCGGAAACGCUGGCCCUUGGCAGCAGAUCGCAUACU [TheoBS 1 #AlternativeMS2] | 252 | 471 | 199 | 13.5 | 516
12 | UGUAUGUGAUCUGAUACCAGUCCAACUGGUAAAAUCUGAGGAUCACCCAGGUAAAAUUGGGACCCUUGGCAGCAGAUCGCAUACU | 146 | 175 | 423 | 544 | 235
13 | UGUAUGUGAUCUGAUACCAGUCCCUUGGCAGCAACAUGAGGAUCACCCAUGUAGAUACCAGACCCUUGGCAGCAGAUCGCAUACU [#DoubleAptamer 1] | 8.55 | – | 9.15 | – | 8.2
14 | UGUAUGUGAUUUGAUACCAGACCAGCUGGUGGUACUUGAGGAUCACCCAGGUAGGUUUGGGUCCCUUGGCAGCAAAUCGCAUACU [SS Theo B #24 Ms12] | 293 | 512 | 731 | 408 | 1310
15 | UGUAUUGGAAACAGUACUAGUGAUCCGGUCCGAGGACCGGUACGGCCGCCACUCGAAAUUAAUAAACAUGAGGAUCACCCAUGUA [Ex Tryptophan A 11] | 15.7 | – | 19.7 | 20.2 | –
16 | UGUCGAAACUGAAGGAGCGAGAUGACAAACAUGAGGAUCACCCAUGUUAUGGGUUGUUAAUCUCAGGUAGGUCGCAGUGACAAAA [Same State Arginine B GF 16] | 88.2 | 106 | 86.8 | 150 | 103
17 | UGUGACAUGAGGAUCACCCAUGUAAGGGAAGGAGCGCCGAAUAAGGCAGGUAGGUCGCCCAAGAUAGAAGAAUAAUAAGAUUGUG [Arginine A Same State; Euphoria Solution] | 20.8 | 27.1 | 39.9 | 27.9 | 28.3
18 | UGUGUUGUCCGAAGGAGCGGGACCUAAUAGUGGUAACAUGAGGAUCACCCAUGUAUUUCGUCCCAGGUAGGUCGCGGACAGUGUA [ArgiB-ms2@36] | 19 | 20.7 | 32.2 | 25.1 | 21.7
19 | UUAACGAGCUGAAGGAGCGCUCUUCAUCAACAUGAGGAUCACCCAUGUACACAUAAUAGGGAGCAGGUAGGUCGCAGCGGGAUGG [#24 Same State - Arginine B] | 14.2 | 16.2 | 24.8 | 17.4 | 17.2

Row | Sequence | apparent KD of MS2 coat protein (input ligand: arginine 13.2 mM) [nM] | apparent KD of MS2 coat protein (input ligand: none) [nM] | apparent KD of MS2 coat protein [1] [nM] | apparent KD of MS2 coat protein [2] [nM] | apparent KD of MS2 coat protein [3] [nM]
20 | UUAUAAGUACCGGUCCUCAGAUCCUCAUGACGAGGACCGGUACGGCCGCCACUCGAAACAUGAGGAUCACCCAUGUAAUAACACU [Brourdmod20] | 19.2 | – | 30.4 | 24.6 | –
21 | UUAUUUAACGGAAGGAGCGCGGAAAUUAAAGUGGGUAAACAUGAGGAUCACCCAUGUAAACCGCAGGUAGGUCGCCGAUAUUUAU [#22 Exclusion - Arginine B] | 43 | 84.5 | 67.3 | 82.1 | 71.9
22 | UUAUUUAUAAUGGAUACCAGUCGUAUGGCCCGGAAUCCUGACAUGAGGAUCACCCAUGUCGACCCUUGGCAGCUGUUAUGGGUUU [XTheo B #22] | 13.7 | – | 16.3 | – | 14.9
23 | UUCAAAGGGAACGGUGCUGGUAACAGAGAUACCAGAGUAAUAAUACUCCCUUGGCAGCUCAUAACAUGAGGAUCACCCAUGUAAU [Exclusion Theophylline A GF21] | 12.4 | – | 17.4 | – | 13.5
24 | UUCAGCUAGUCGGCCGCCACUACAUGAGCAUCAGCCAUGUUCCUAAAACACUGCUUCGGCAGUGGUAGGACCGGGACUAGCUGAG | 10.4 | 11 | 12 | 12.6 | 25.9
25 | UUCAGUACAACAGAUACCAGACAGUACUCUAAAUUGCAACAUGAGGAUCACCCAUGUAUAGUCCCUUGGCAGCUGUAAUGGGUGA [Theo B SS s2] | 150 | – | 159 | – | 70.8
26 | UUCGCGGCCGCGCUGCACAUGUGUGUGUUACGAGGACCGGUACGGCCGCCACUCGCGAUCGCACAUGAGGAUCACCCAUGUGGGA [Exclusion Tryp A GF17] | 24.1 | 25.7 | 35.8 | 75.6 | 1040
27 | UUCUACAUGAGGAUCACCCAUGUAAACGAUACCAGACGAGUAUUAGUCCCUUGGCAGCGUAGAGUGUCGUUUAUAGUAGGAUACC [TheoA-ms2@5] | 23.4 | – | 26.1 | – | 21
28 | UUCUACGGCGAUCUGGGUUUACCAGAUCGACGAGGACCGGUACGGCCGCCACUCGUGUUUCUUUAACAUGAGGAUCACCCAUGUA [#11 Tryptophan A Same State] | 53 | – | 78.7 | 66.1 | –
29 | UUCUGGUCCCGUGAUACCAGAGACAUGAGGAUCACCCAUGUACAUGAGGAUCACCCAUGUUUCCCUUGGCAGCACUGUAGGGAGC [Exclusion Theophylline B GF 16] | 79.9 | – | 226 | – | 207
30 | UUGCAUAUCUUGGAUACCAGCACAUGAGGAUCACCCAUGUCCGCGGGAUAGCUCCAGAUGUGCCCUUGGCAGCCACAUGCACUUG [Quinzama] | 10.9 | – | 18.4 | – | 10.7
31 | UUGCCCAGUACGGCCGCCACUGUGUGCAGGGAACCCAGGUCCACAUGAGGAUCACCCAUGUACAGCAGGACCGGGUACUUGCAAU [Ininladia] | 8.14 | – | 11.9 | 10.6 | –
32 | UUGGUACAUGAGGAUCACCCAUGUACUGAAGGAGCGGGACGAAUCUCAGGUAGGUCGCAGACAUGAGGAUCACCCAUGUAUUGGU [Exclusion Arginine A GF 16] | 18.9 | 13 | 16.4 | 19 | 16.5
33 | UUGUUGUUUGGAAGGAGCGUGGAUGAGUUAGAACAUGAGGAUCACCCAUGUUGGAUGAUACCGCAGGUAGGUCGCCGGGUGGUGG [11.aA] | 141 | 50.7 | 76.4 | 40 | 51.5
34 | UUGUUGUUUGGAAGGAGCGUGUAAGAUUAAGAACAUGAGGAUCACCCAUGUUUUAAGGGAGCACAGGUAGGUCGCCGGGUGGUGG [11.S] | 14.4 | 12.3 | 31.5 | 15.9 | 21.5
35 | UUUGCACAUGAGGAUCACCCAUGUACAGAUACCAGCCUCAUCUACGGCCCUUGGCAGCUGAGACAAUGGUGACGUGACGGGCUUU [Erqugere] | 13 | – | 14.4 | – | 13.2
36 | UUUGCACAUGAGGAUCACCCAUGUACAGAUACCAGCCUCAUCUACGGCCCUUGGCAGCUGAGACAAUGGUGACGUGAUGGGCUUU [Iserraxeso] | 12.9 | – | 14.7 | – | 11.8
37 | UUUUUCAUAGGUUAUAGUUAAGAAACUGAAGGAGCGUGGUAAUACACAGGUAGGUCGCAGAUUUUACAUGAGGAUCACCCAUGUU [JR_SSArginiA_Sub009] | 27.8 | 34.9 | 31.9 | 21.5 | 36.4
38 | UUUUUUUUUUACAUGAGGAUCACCCAUGUUCGAGGACCGGUACGGCCGCCACUCGUUUUUGUUGUGGUAGGGUUAGGGUUAGGGU [Turkey Lurky] | 19.4 | 43.5 | 92 | 44.8 | 25.5
